The record followed here is publication PMC8540780, “Biochemical and Molecular Characterization of the Rice Chalcone Isomerase Family” (Plants, 2021).

Substrate in series [1]: O=C(/C=C/c1ccc(O)cc1)c1c(O)cc(O)cc1O
Briefly: purified protein. As to conditions: 50 mM Tris pH 7.5, 0.1 µg enzyme per mL, substrate 1–50 µM. Type of series: biochemical, Oryza sativa.

Substrate in series [2]: O=C(/C=C/c1ccc(O)cc1)c1ccc(O)cc1O
As to the kind of experiment: purified protein. As to conditions: 50 mM Tris pH 7.5, 500 µg enzyme (b24 prints 440 µg/mL for the activity test), substrate 1–50 µM.

Usually Km stands for the concentration of substrate that gives half-maximal velocity. What is called Vmax is the top rate of the reaction or transport when substrate is in excess. A word on the kcat: it is the number of substrate molecules converted per active site and unit of time at saturation. A word on the kcat/Km: it is the turnover number divided by the Michaelis constant.

B1: OsCHI3 (Oryza sativa Japonica Group) (protein)
chain: MAAVSEVEVDGVVFPPVARPPGSGHAHFLAGAGVRGVEIAGNFIKFTAIGVYLEEGAAVPALAKKWAGKSADELAADAAFFRDVVTGDFEKFTRVTMILPLTGEQYSDKVTENCVAAWKAAGVYTDAEGAAADKFKEAFKPHSFPPGASILFTHSPPGVLTVAFSKDSSVPEGAVAAAAIENRALCEAVLDSIIGEHGVSPAAKRSIAARVSQLLKAESTGDVAAAEPAPVSA
notes: 233 aa; 28 kDa on SDS-PAGE
On to B1, for which, in “purified protein [1]”, the Km was determined as 11.60 ± 0.78 µM, the Vmax turned out to be 160 µmol/min/mg, the kcat worked out at 69.3 s⁻¹ and the kcat/Km turned out to be 5.98e+06 M⁻¹ s⁻¹. In the series “purified protein [2]”, the Km came to 50.95 ± 4.83 µM, the Vmax turned out to be 0.000212 µmol/min/mg, the kcat was found to be 9.21e-05 s⁻¹ and the kcat/Km amounted to 1.81 M⁻¹ s⁻¹.
